Source: PMC7057995, “Structural basis of RNA polymerase I pre-initiation complex formation and promoter melting”

Target: Core factor (CF) wild type: Rrn6/Rrn7/Rrn11 (Saccharomyces cerevisiae, UniProt P32786;P40992;Q04712 1-894;1-514;1-507)
Test: EMSA; 0.2 pmol DNA; 0.25, 0.5, 1 pmol CF; EMSA: 20 mM HEPES/KOH pH 7.8, 10% glycerol, 200 mM KCl, 1 mM MgCl2, 0.1 mg/ml BSA, 1 mM DTT, 30 min, temperature not stated; 6% native gel, 0.5x TBE
Conditions: protein: recombinant; tags: His (Ni-NTA purified); copies: 1;1;1; label: NTS -3 Atto647N; TS -5 Cy3; blunt

Core factor (CF) wild type: Rrn6/Rrn7/Rrn11, sequence (P32786 whole entry, chain 1 of 3): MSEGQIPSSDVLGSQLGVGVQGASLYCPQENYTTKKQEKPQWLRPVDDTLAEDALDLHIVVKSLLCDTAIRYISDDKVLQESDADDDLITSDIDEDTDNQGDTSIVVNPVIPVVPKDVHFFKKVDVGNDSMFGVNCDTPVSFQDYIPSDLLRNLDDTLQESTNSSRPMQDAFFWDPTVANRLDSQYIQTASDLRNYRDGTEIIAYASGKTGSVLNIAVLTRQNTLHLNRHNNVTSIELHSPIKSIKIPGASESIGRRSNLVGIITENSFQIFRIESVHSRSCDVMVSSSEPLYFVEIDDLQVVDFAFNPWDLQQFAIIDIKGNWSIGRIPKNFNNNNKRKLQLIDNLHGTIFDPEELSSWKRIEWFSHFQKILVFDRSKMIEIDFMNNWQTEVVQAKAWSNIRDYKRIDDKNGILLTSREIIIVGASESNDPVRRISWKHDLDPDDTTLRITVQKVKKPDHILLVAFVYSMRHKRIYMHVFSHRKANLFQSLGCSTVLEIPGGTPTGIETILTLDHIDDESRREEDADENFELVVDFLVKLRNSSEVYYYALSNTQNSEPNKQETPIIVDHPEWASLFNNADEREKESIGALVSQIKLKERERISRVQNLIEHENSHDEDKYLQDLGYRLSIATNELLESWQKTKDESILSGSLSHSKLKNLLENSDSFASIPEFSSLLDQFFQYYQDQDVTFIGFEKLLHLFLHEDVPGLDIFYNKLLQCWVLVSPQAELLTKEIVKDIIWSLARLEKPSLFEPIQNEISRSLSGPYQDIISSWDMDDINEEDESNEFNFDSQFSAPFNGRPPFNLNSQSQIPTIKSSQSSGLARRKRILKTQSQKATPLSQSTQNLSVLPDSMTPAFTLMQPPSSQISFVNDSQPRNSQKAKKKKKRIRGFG
Core factor (CF) wild type: Rrn6/Rrn7/Rrn11, sequence (P40992 whole entry, chain 2 of 3): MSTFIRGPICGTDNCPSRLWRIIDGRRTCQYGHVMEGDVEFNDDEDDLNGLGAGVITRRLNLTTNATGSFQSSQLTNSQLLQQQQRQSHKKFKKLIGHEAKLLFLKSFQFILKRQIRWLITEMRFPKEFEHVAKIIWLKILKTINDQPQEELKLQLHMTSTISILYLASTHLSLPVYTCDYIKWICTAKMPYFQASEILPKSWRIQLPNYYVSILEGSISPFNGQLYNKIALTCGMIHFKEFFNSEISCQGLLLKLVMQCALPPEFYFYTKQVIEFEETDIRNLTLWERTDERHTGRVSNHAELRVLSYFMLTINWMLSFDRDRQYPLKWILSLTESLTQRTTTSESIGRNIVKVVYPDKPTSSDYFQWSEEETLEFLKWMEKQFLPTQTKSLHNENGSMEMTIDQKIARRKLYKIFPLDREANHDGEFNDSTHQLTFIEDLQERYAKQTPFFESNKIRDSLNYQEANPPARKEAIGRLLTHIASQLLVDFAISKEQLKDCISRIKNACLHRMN
Core factor (CF) wild type: Rrn6/Rrn7/Rrn11, sequence (Q04712 whole entry, chain 3 of 3): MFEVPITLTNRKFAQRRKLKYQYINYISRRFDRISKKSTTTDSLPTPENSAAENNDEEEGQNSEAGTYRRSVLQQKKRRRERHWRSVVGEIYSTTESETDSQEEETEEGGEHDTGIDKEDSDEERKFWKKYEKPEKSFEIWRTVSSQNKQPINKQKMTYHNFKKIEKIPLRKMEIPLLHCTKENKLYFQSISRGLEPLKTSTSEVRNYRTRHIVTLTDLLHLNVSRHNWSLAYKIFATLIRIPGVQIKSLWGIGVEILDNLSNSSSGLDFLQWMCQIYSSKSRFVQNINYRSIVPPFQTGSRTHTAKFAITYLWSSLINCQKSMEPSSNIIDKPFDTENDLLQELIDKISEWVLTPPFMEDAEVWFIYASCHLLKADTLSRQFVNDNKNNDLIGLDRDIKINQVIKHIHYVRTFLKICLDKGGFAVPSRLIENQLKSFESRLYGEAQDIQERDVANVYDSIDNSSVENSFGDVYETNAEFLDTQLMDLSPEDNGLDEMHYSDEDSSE

B1: rDNA promoter -83 to +26 (EMSA; ID 4691/4692) (dsDNA)
DNA 1: AAAAGTAAGATTTTAGTTTGTAATGGGAGGGGGAATTTAGTCATGGAGTACAAGTGTGAGGAAAAGTAGTTGGGAGGTACTTCATACCAAAGGGGTTCAACACAAGGGT
DNA 2: ACCCTTGTGTTGAACCCCTTTGGTATGAAGTACCTCCCAACTACTTTTCCTCACACTTGTACTCCATGACTAAATTCCCCCTCCCATTACAAACTAAAATCTTACTTTT
binding result: binds
